Legend:
SW480 = assay: cell viability assay, SW480; assay type: cell-based, human; set-up: key: +: growth inhibition; −: no or weak effect; conditions: SW480, Colorectal Adenocarcinoma
Protocol: (§1) The different cell lines were cultured in their respective culture media at 37° C. in a humidified atmosphere of 5% CO2. Subsequently, cells were detached from tissue-culture flasks using the cell-dissociation solution, TRIPLE SELECT™ solution (InVitrogen, Carlsbad, Calif., USA), and centrifuged at 1000 rpm for five minutes. Detached cells were washed once with PBS, counted, and seeded in 96-well plates (Corning, N.Y., USA) at 2000 cells per well in 100 μL of culture media. After an overnight incubation at 37° C. in a humidified atmosphere of 5% CO2, the cell-culture medium was replaced with 50 μL of starvation medium consisting of serum-free RPMI 1640™ medium without phenol red. The cells were then starved for five hours in the incubator before addition of 25 μL of each anti-IGF-1R monoclonal antibody at various dilutions in serum-free RPMI 1640™ phenol red-free media. Later, 25 μL of phenol red-free RPMI 1640™ media supplemented with 4% of fetal bovine serum (FBS) (Sigma) with or without 4 ng/ml of human recombinant IGF-I were added on top of the 50 μL of antibody. The cells were then placed at 37° C. with 5% CO2 for 5 to 6 days. At the end of the assay, cell viability was measured using the […]-GLO® kit according to the manufacturer's instructions (Promega, Madison, Wis., USA).

[1] = tested on: IGF-1R signaling (phospho-IGF-1R, AKT, ERK1/2); assay: Western blotting of IGF-1R signaling in MCF7 cells; assay type: cell-based, human; conditions: for inhibition of IGF-I-mediated AKT activation: serum-starved MCF7, IGF-I 50 ng/ml; for inhibition of IGF-II-mediated IGF-1R phosphorylation and downstream AKT and MAPK1/2 activation: serum-starved MCF7, IGF-II 100 ng/ml
Protocol: Also examined was the effect of these antibodies on ligand-dependent IGF-1R signaling by directly analyzing IGF-1R phosphorylation as well as major downstream pathways, such as AKT and MAPK activation. In this assay, MCF7 cells were grown in 6-well plates and serum was withdrawn for 16 hours. […] The cells were directly lysed in SDS sample buffer, and the lysate was analyzed by Western blotting using antibodies against IGF-1R, phospho-IGF-1R, AKT, phospho-AKT, ERK1/2, phospho-ERK1/2 (also called MAPK1/2 and phospho-MAPK1/2) (all from Cell Signaling Technology, Inc.; Beverly, Mass., USA).
For the IGF-1R signaling pathway analysis, MCF7 cells were grown in six-well plates for 24 hours and then serum starved (serum-free and phenol-free RPMI medium supplemented with 1 mg/mL BSA) overnight. The cells were first incubated with h10H5 for 20 minutes, then stimulated with 50 ng/mL IGF-1 or 100 ng/mL IGF-11 for ten minutes. Cells were directly lysed in SDS sample buffer to preserve protein phosphorylation. After brief sonication, the lysates were separated by SDS-PAGE and transferred to nitrocellulose membranes (Invitrogen; Carlsbad, Calif.), which were probed with anti-phospho-IGF-1R, AKT, and ERK1/2 antibodies. The same blots were then stripped using Stripping Buffer™ (Pierce Biotechnology; Rockford, Ill.) and re-probed with antibodies against total IGF-1R β, AKT, and ERK1/2.

PC3 = assay: cell viability assay, PC3; assay type: cell-based, human; set-up: key: +: growth inhibition; −: no or weak effect; conditions: PC3, Prostate Adenocarcinoma
Protocol: as §1

IGF-1R = IGF-1R (Homo sapiens, UniProt P08069); assay: KIRA assay of IGF-1R phosphorylation in MCF7 cells; assay type: cell-based; set-up: IGF-1R is normally localized at the plasma membrane of MCF7 cells; endogenous in cells; host or cells: MCF7; conditions: IGF-I 10 ng/ml or IGF-II 50 ng/ml; ranking upon IGF-II stimulation
Protocol: Also examined was whether the blocking activity of these antibodies was sufficient to interfere with receptor activation, which is measured by IGF-1R phosphorylation. A KIRA assay (kinase receptor activation) was utilized to perform quantitative analysis of IGF-1R phosphorylation in MCF7 cells. Anti-IGF-1R antibodies in serial dilutions (0.19 to 200 nM in medium) were added to MCF7 cells in 96-well plates for one hour. IGF-I (10 ng/ml) or IGF-11 (50 ng/ml) was subsequently added and incubated for ten minutes. The cells were lysed, and the resulting lysates were transferred to an ELISA plate, which was coated with IGF-1R-capturing antibody 3B7 (250 ng/well). After incubation for two hours, the cell lysate was removed, and the plates were washed. Phosphotyrosine-specific antibody 4G10 (Upstate, Charlottesville, Va., USA) was added to detect IGF-1R phosphorylation through TMB peroxidase substrate.

HELA = assay: cell viability assay, HELA; assay type: cell-based, human; set-up: key: +: growth inhibition; −: no or weak effect; conditions: Cervix Adenocarcinoma
Protocol: as §1

murine IGF-1R = target: T1, murine IGF-1R (Mus musculus, UniProt Q60751); assay: BIACORE surface-plasmon resonance, murine IGF-1R; assay type: binding
T1 construct: evaluated against human and murine IGF-1R-ECD
T1 sequence (Q60751 31-737 limits assumed): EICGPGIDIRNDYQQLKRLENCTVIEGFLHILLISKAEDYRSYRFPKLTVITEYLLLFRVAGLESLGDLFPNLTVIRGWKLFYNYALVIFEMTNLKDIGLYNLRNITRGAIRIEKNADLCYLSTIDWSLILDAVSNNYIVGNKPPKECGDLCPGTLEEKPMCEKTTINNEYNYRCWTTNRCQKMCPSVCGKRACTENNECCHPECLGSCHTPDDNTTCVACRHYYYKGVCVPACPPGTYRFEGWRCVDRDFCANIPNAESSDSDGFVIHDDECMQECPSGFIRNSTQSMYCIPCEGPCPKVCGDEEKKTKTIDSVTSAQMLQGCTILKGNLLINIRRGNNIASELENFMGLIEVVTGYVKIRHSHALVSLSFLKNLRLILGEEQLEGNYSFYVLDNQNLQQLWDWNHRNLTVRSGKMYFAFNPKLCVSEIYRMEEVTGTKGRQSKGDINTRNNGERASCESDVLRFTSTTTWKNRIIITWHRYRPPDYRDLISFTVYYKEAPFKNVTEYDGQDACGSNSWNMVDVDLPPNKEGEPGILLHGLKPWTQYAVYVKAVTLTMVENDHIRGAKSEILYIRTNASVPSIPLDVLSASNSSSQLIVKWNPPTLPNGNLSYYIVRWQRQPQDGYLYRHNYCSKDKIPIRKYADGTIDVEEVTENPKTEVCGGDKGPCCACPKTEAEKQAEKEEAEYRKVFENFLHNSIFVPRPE
T1 sequence (Q60751 742-936 limits assumed): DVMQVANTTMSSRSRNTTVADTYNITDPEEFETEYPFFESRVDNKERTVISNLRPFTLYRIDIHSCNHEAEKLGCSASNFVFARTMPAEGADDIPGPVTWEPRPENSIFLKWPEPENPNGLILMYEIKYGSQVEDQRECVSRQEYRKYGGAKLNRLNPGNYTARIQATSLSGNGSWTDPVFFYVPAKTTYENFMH
Protocol: Before HVR grafting, murine 2B4, 9F2, and 10H5Fab binding affinities were evaluated against human and murine IGF-1R-ECD using BIACORE™ instrument analysis. The procedure used was that for BIACORE™ instrument analyses generally, wherein the analyte was anti-IGF-1R Fab (500 nM-[…]; two-fold serial dilution), the ligand was IGF-1R (about 500 RU)-coated CM5 sensor chip, and the temperature was 25° C.
Binding affinities of selected antibodies to IGF-1R were determined by surface plasmon resonance measurements on a BIACORE™ 3000 instrument (BIAcore, Inc.). Human, murine, or cynomolgus-monkey IGF-1R was immobilized at a density of about 500 RU on the flow cells of a PIONEER™ CM5 sensor chip. Immobilization was achieved by random coupling through amino groups using a protocol provided by the manufacturer. Sensorgrams were recorded for binding of anti-IGF-1R Fab or IgG to these surfaces by injection of a series of solutions ranging from 500 nM to 3.1 nM and 250 nM to 0.78 nM in two-fold increments, respectively. The signal from the reference cell was subtracted from the observed sensorgram. Kinetic constants were calculated by non-linear regression analysis of the data according to a 1:1 Languir binding model using software supplied by the manufacturer.

T47D = assay: cell viability assay, T47D; assay type: cell-based, human; set-up: key: +: growth inhibition; −: no or weak effect; conditions: Breast Ductal Carcinoma
Protocol: as §1

KM12 = assay: cell viability assay, KM12; assay type: cell-based, human; set-up: key: +: growth inhibition; −: no or weak effect; conditions: KM12, Colorectal Adenocarcinoma
Protocol: as §1

DLD1 = assay: cell viability assay, DLD1; assay type: cell-based, human; set-up: key: +: growth inhibition; −: no or weak effect; conditions: DLD1, Colorectal Adenocarcinoma
Protocol: as §1

Molecule	Effect of IR3, 6D2, 9F2, and 10H5 (SW480)	inhibition of IGF-I-mediated AKT activation [1]	inhibition of IGF-II-mediated IGF-1R phosphorylation and downstream AKT and MAPK1/2 activation [1]	Effect of IR3, 6D2, 9F2, and 10H5 (PC3)	inhibition of IGF-I/II-mediated IGF-1R phosphorylation (KIRA) (IGF-1R)	Effect of IR3, 6D2, 9F2, and 10H5 (HELA)	binding to mouse IGF-1R (murine IGF-1R)	Effect of IR3, 6D2, 9F2, and 10H5 (T47D)	Effect of IR3, 6D2, 9F2, and 10H5 (KM12)	Effect of IR3, 6D2, 9F2, and 10H5 (DLD1)
10H5: mouse monoclonal anti-IGF-1R antibody from hybridoma 10H5.3.4, ATCC PTA-7007 (antibody, V domains shown) VH: QVQLQQPGAELVKPGASVTLSCKASGYTFTRFWIHWVKQRPGQGLEWIGEINPSNGRTNYNENFKNKATLTVDTSSSTAYMQLSSLTSEVSVVYYCARGGRLDQWGQGTT VL: DIVMTQSQKFMSTSLGDRVSVTCKASQNVGSNVAWYQQKPGQSPEALIYSASYRYSGVPDRFTGSGSGTDFTLTISNVQSEDLAEYFCHQYNNYPYTFGGGTKVEIKR	+	potently prevented AKT activation	remained as strong inhibitors	−	most effective group	+	not to mouse IGF-1R or human insulin receptor	−	−	−
9F2: mouse monoclonal anti-IGF-1R antibody from hybridoma 9F2.6.2, ATCC PTA-7018 (antibody, V domains shown) VH: QIQLVQSGPELKKPGETVKISCKASGYTLANYGMNWVKQAPGKGFKWMGWINTNTGKPTYSDEFKGRFVFSLETSASTAYLLINNLSNEDTATYFCARSIYYYGSRYFNVWGAGTT VL: DIQMTQSTSSLSASLGDRVTISCRASQDINNYLTWYQQKPDGTVKLLIYYTSRLHSGVPSRFSGSGSGTDYSLTITNLEQEDFATYFCQQGNTLPWTFGEGTKVEIKR	+	potently prevented AKT activation	remained as strong inhibitors	−	most effective group	+	not to mouse IGF-1R or human insulin receptor	−	−	−

Reference: patent US20090068110A1, “ANTIBODIES TO INSULIN-LIKE GROWTH FACTOR RECEPTOR” (Genentech, Inc., priority 2006, published 2009)
